In patent US20130084301A1:

Experiments:
CD81 = CD81 (UniProt P60033); assay: cell-based or functional assay
[1] = molecular target: HCV E2 glycoprotein, genotype 1a (H77c) (hepatitis C virus genotype 1a, H77c) (UniProt P27958)
[2] = molecular target: E2 of genotype 1a HCVcc (hepatitis C virus genotype 1a); assay: cell-based or functional assay

Sequence of CD81 (P60033 whole entry): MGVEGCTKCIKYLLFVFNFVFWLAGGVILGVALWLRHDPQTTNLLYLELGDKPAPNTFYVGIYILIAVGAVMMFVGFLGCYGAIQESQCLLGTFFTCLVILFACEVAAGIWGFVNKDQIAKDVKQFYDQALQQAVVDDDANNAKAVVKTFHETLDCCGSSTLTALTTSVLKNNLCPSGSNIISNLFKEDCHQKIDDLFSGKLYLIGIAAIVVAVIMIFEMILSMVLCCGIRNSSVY

## HCV 1a E2 with alanine substitution at 446 (from UniProt P27958 384-746)
CD81
  reduction in viral infectivity, mutant 1a HCVpp (luciferase): 60%

## HCV 1a E2 with alanine substitution at 437 (from UniProt P27958 384-746)
CD81
  reduction in viral infectivity, mutant 1a HCVpp (luciferase): > 95%

## HCV 1a E2 with alanine substitution at 428 (from UniProt P27958 384-746)
CD81
  reduction in viral infectivity, mutant 1a HCVpp (luciferase): 84%

## HCV 1a E2 with alanine substitution at 420 (from UniProt P27958 384-746)
CD81
  reduction in viral infectivity, mutant 1a HCVpp (luciferase): > 95%

## HCV 1a E2 with alanine substitution at 443 (from UniProt P27958 384-746)
CD81
  reduction in viral infectivity, mutant 1a HCVpp (luciferase): 79%

## HCV 1a E2 with alanine substitution at 613 (from UniProt P27958 384-746)
CD81
  reduction in viral infectivity, mutant 1a HCVpp (luciferase): > 95%

## HCV 1a E2 with alanine substitution at 429 (from UniProt P27958 384-746)
CD81
  reduction in viral infectivity, mutant 1a HCVpp (luciferase): > 95%

## HCV 1a E2 with alanine substitution at 616 (from UniProt P27958 384-746)
CD81
  reduction in viral infectivity, mutant 1a HCVpp (luciferase): > 95%

## HCV 1a E2 with alanine substitution at 441 (from UniProt P27958 384-746)
CD81
  reduction in viral infectivity, mutant 1a HCVpp (luciferase): > 95%

## CBH-5 (antibody)
[1]
  % reduction of E2 binding to CD81: > 90%
[2]
  50% inhibition, neutralization of 1a HCVcc: > 100 µg/mL

## HCV 1a E2 with alanine substitution at 442 (from UniProt P27958 384-746)
CD81
  reduction in viral infectivity, mutant 1a HCVpp (luciferase): > 95%
